In the DeepSol protein solubility set:

assay: soluble on expression in E. coli; label from the status in PepcDB or PDB records

Sequence | soluble on expression in E. coli
MSLKQLDMTPQPDLSQKTGTGPVLTRLPVWRPALPPCNHACPAGENIQAWLSLAEAGRFEAAWQTLIEENPLPAIHGRVCYHPCESACNRAQVDDAVSIHAIERFLGDEALARGWQPAPPAPASGKKVLVIGAGPSGLSCAWHLNRLGHQVEIREAGPLAGGMLRFGIPAYRLPRDVLDREVARIVAAGVTLTLNHKVEDVLRERDEGGFDAVFMAIGAHLAKRVDIPAREAGKILDAVSFLEQASLAEEQGLPPPKLGRRVAIYGGGNTAMDAARTARRLGVEEAMIIYRRDREHMPAHAFEADEAEEEGIKINWLRSIRQLDNTNIEVEVMALDAEGKPVPTGKFETLEADSLILALGQEVDLSVLESIPGVRVNKEGVVQVGENLMTDVPGLFAGGDMVPSERTVTIATGHGKKAARHMDAWLRGRHYQKMVSYPLVGPEQLQLWFQTHAPASSQPVKPAWARDDFGEIIGGLDETAARYEAARCYSCGNCFECDGCYGSCPEQAIEKLGPGKGYQVDATRCTGCGACHDQCPCHAIELRQPEESEGHHHHHH | soluble
MDITNLIELETICLDLKAQTKDEALKELVEMLEAAGKLNSQSQFLADIWKREEIGNTGFDDGIAIPHAKSDAVAKPAVAVGISRNGIDYGAEDGELSDVFFMLASPDGDDHHHIEVLAQISTKIIEDGFVEKLKQAQSREEALEMLTDIQTQSNEFLPTSLEFASEPLSPWAQKLGRIKEH | not soluble
MGSDKIHHHHHHMDDFSEILARKRQGSLKVYLGYAAGVGKTYAMLQEAHRLAREGLDVVIGYVEPHDRADTLALVEGLEQVAPRKVAIAGSDFTEMDVPGIIARRPQVVLVDELAHTNAAGSENGKRYQDVLKVLEAGINVITTLNVQHLESVAERVESVAGVRVQERLPDAILRRADQVVNVDLTKEDLRERLRQGRIYSPEQAERALGGFFSYRNLSFLRELCLREASGDQVRKIEEQEHFPRHSAGDVIEGVMVALSSSPTDAETLIRRGVRIAHQMGSPCYVVYVQRPSENPTRIDSGLQRVLQGNLRLATQLGAEVVQLAGGDIAETLANFASERNVRHAVFGKSRLSPLLERVRGSFILEFLHDAVGVDVHIVNTTPRQPGQERA | not soluble
MESINYQILKRSEKKLLGLFFDYFQHVIKMHETLNKLLCEADVTKREKLIQAIYEMEDFSNKSEFKLINESIWAISKNSPLTNHLRLTITIIMCSRDLERICDYANNLTKFVKHYQHLDVSIFSKLVNLHKSVLNNLKQTFASLQDKEKPLTIQFENVTKILTEFEQQYRVVLTEYYDKVKDEKLSDRIFLIDLILSVKHIERINDYCYNIIKAFLFVKNPEVFN | soluble
MSLNYSVLPPEINSLRMFTGAGSAPMLAASVAWDRLAAELAVAASSFGSVTSGLAGQSWQGAAAAAMAAAAAPYAGWLAAAAARAAGASAQAKAVASAFEAARAATVHPMLVAANRNAFVQLVLSNLFGQNAPAIAAAEAMYEQMWAADVAAMVGYHGGASAAAAQLSSWSIGLQQALPEGHHHHHH | soluble
MGSDKIHHHHHHMSLANRTTSSAYRLFNLRLESKTLLSPSLARCVFTGPEVRQMKLDAPDQRIKLLFASESGELTPMTVSDTWYQDYLALPRERRPILRTYTLRSVSRDLQQATIDFVLHGDTGPASSWAGHAKPGDALQIVAPNAEADGASGGYEWAPHDGVEQVLLIADETALPAAMGILEQLATQPSPPSVQAFFEVPKAADCVTPSDFPFAQIHWLPREETGSTIWGERLLYAVQQDVKIPASACINRDDIAQETPEDELLWERATAHRPFYAWVAGESSAIKRLRRYLLDERHLDKETINFMAYWSHR | not soluble
MGSDKIHHHHHHMNIRLYSDLHIEFEDFHAPADGADVVVLAGDVDVGVRGIDWIVRQEFSCPVIYVMGNHEYYNHRYPSLLGKVKQHAAGKNIHILENESVEIDGVRFHGATLWADFKLFGDPRVAGYECQQVMRDYKKIRKEPSYSKLRSIDVASIHNQSLSWLAESLASSKSSVNVVVTHHAPSMLSVPAYYQDNLVTAAYASDLSAFIDEHKPDYWLHGHLHTSSNYYLGACQVLANPKGYKGEVNESFDPSFSLTLAKRGV | not soluble
GPGSMPPRRKSECLSSYAVDTTPSFQDEKFIEQLLHFVGANDEVSLLTMTAVALGAECYQVDLGQQIVVDARLDFINFCAKQGYCAAKVVHLLKWLCTFQERVEDGCNTQEMQEEVIAFVTSEVEEEWKWKRALQAEEALWEVQSSSKTSARRGHRAAEKVVEETEAVSTVPKENIYLQREDIGPFSTWLIQGIVQHASLYHYVATHARMVGEPEEFNYFLEVPVSAPPLRNALAPESVPQEPPLAKAQQDVEEQRASELETYKKEYEEAMALEQLRLQTIQNERDMKVFIENEGSMRAVEDTYESLQVDLSKRQRQILERITAAEKALGIFPFVQPQ | not soluble
